How the values were obtained:
[1] = target: SARS-CoV-2 Spike protein (Spike trimer) (SARS-CoV-2) (UniProt P0DTC2)
[2] = target: SARS-CoV-2 Spike protein (Spike trimer) (SARS-CoV-2) (UniProt P0DTC2); remark: listed apart in the source
[3] = target: SARS-CoV-2 Spike protein (Spike trimer) (SARS-CoV-2) (UniProt P0DTC2); remark: listed apart in the source

Ty1-modified ClyA nanopore (ClyA-f-Ty1)
constant fit of Log10(tin (ms)) against Spike protein concentration (pM) [1]: 1.48 Log10(ms)
Kd [2]: 0.761 nM
EC50 (read off the curve) [3]: 600 pM

Source: patent US20260126425A1
